# The nanobody polyreactivity screen of Harvey et al. (2022)
# Test: yeast display, Sf9 membrane polyspecificity reagent, FACS + sequencing; frameworks hold sequencing errors
# Method in brief: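 Polyreactivity labels are assigned by the sorting gate from which each nanobody was recovered. The gates were low and high (top ~1%), set on anti-HA fluorescence for expression and streptavidin fluorescence for reagent binding. Before sorting, galactose-induced (36–48 hours) yeast display cells were stained for 1 hour at 4 °C with 10% biotinylated, detergent-solubilized Sf9 membrane reagent.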
row,Sequence,polyreactivity (PSR sort gate)
1,QVQLVESGGGLVQAGGSLRLSCASSGRTFVNNAMGWSRQAPGKERELVAAISQSGSRTYYADSVKGRFTISRDNAKNTVYLQMNSLKPEDTAVYYCAARGARYSTSDYWGQGTQVTVSS,high polyreactivity
2,QVQLVESGGGLVQAGGSLRLSCAASGTFFIYAMGWYRQAPGKERELVATISTGGSTNYADSVKGRFTISRDNAKNTVYLQMNSLKPEDTAVYYCAAEWLYPHDGGYPRPMDYWGQGTQVTVSS,low polyreactivity
3,QVQLVESGGGLVQAGGSLRLSCAASGLIFRYYAMGWYRQAPGKERELVAAISKSGGRTYYADSVKGRFTISRDNAKNTVYLQMNSLKPEDTAVYYCATGVRGYVGWSSALYYEYDYWGQGTQVTVSS,high polyreactivity
4,QVQLVESGGGLVQAGGSLRLSCAASGYTFWWYAMGWYRQAPGKEREFVAAIRFSGGTRTYYADSVKGRFTISRENAKYTVFLQMNSLKPDDTAVYYCAADIAFRQWQVGDFDYWGQGTQVTVSS,low polyreactivity
5,QVQLVESGGGLVQAGGSLRLSCAASGIIFVRYAMGWYRQAPGKERELVAAISWSGGSTYYADSVKGRFTISRDNAKNTVYLQMNSLKPEDTAVYYCAADSHRTRGDARYYYWGQGTQVTVSS,high polyreactivity
6,QVQLVESGGGLVQAGGSLRLSCAASGSIFEYYTMGWYRQAPGKEREFVAAITFTGDSTYYADSVKGRFTISRDNAKNTVYLQMNSLKPEDTAVYYCNADSVTYDGEYDYWGQGTQVTVSS,low polyreactivity
7,QVQLVESGGGLVQAGGSLRLSCAASGRTLFRYAMGWYRQAPGKERELVAAISRSGGTTYYADSVKGRFTISRDNAKNTVYLQMNSLKPEDTAVYYCAARGRYKDGYRMDYWGQGTQVTVSS,high polyreactivity
8,QVQLVESVGGLVQAGGSLRLSCAASGSTFEIYAMGWYRQAPGKERELVAVISGGDGSTYYADSVKGRFTISRDNAKNTVYLQMNSLKPEDTAVYYCAADYISPGYWDGEYDCWGQGTQVTVSS,low polyreactivity
9,QVQLVESGGGLVQAGGSLRLSCAASGSILRYYAMGWYRQAPGKERELVADISTSGGSTYYADSVKGRFTISRDNAKNTFDLQMISLKPEDTAVYYCASAYYRYLIYIGKFDYWGQGTQVTVSS,high polyreactivity
10,QVQIVESGGGLVPAGCSLRLICAASGFTYALYAMGWYRQAPGKETELVAANTYRGGSTYDADSVKWRFTISRDNAKNTVYLQLISLKPEDTAVYYCNAGGLWFPGVPDYDYWVQGTQVTVSS,high polyreactivity
11,QVQLVESGGGLVQAGGSLRLSCAASGSTFKVYAMRWYRQAPGKERELVARISTRVGSTYYADSVKGRFTISRDNAKNSVYLQMNSLKAEDSAVYYCNARWWDPPYYYWGQGTQVTVSS,high polyreactivity
12,QVQLVESGGGLFQAGGSLRLSCASSGFIFVRYAMGWYIQAPGKERELVAGINSGGSTSYADSVKGRFTISRDNAKNSVYLQMNSLKPEDTAVYYCAAAKFRRGTRYYYCGQGTQVTVSS,high polyreactivity
13,QVQLVESGGGLVQAGGSLRLSCAASGRIFATNAMGWDRPAPGKERELVATITRSAGRTYYADSVKGRFTISRDNAKNTVYFQMNSLKPEDTAVYYCAASYWDTEPGYREYDYWGQGTQVTVSS,low polyreactivity
14,QVQLVESGGGLVQAGGSLRLSCAASGRILYLNAMGWYRQAPGKERELVAAITRRAGSTRYADSVKGRFTISRDNAKNTVYLQMNSLKPEDTAVYYCAVAYYRNRMDYWGQGTQVTVSS,high polyreactivity
15,QVQLVESGGGLVQAGGSLRLSCAASGFTFRWNAMGWYRQAPGKERELVAAITSRGGSTYYADSVKGRFTISRDNAKNTVYLQINSLKPEDTAVYYCARLAGIGFSYRYDYWGQGTQVTVSS,high polyreactivity
16,QVQLEESGGGLVQAGGSHRLSCAASGPTFRRNVMGWSRQAPGKEREFVAAITWSGGNTYYADSVKGRITISRDNAKYTVFLQMYSLKREDTAVYYCNARSAIWGWGYGSYDYWGLGTQVTVSS,low polyreactivity
17,QVQLVESAGGLVQAGGSLRLSCAASGRTFQYYALGWYRQAPGKERELVAAISWSGGSTYYADSVTGRFTISRDNAKNTVYLLMNSLKPEDSAVYYCAKTSSGRKFYWGQGTQVTVSS,high polyreactivity
18,QVQLVESGGGLVQAGGSLRLSCAASGSIFSYYTMGWYRQAPGKERELVAAITRGGRTSYADSVKGRFTISRDNAKNTVYLQMNSLKPEDTAVYYCAADYWYFTHQLSTYGDNYWGQGTQVTVSS,low polyreactivity
19,QVQLVESGGGLVQAGGSLRLSCAASGFIFYTYAMGWYRQAPGKERELVAAISWNGGSTNYADSVKGRFTISRDNAKNTDYLQMNSLKPEDTAVYYCAARSVSTLRYTSRKLRYDYWGQGTQVTVSS,high polyreactivity
20,QVQLVESGGGLVQAGGSLRLSCAASGFTFETYVMGWYRQAPGKERELVAAISRRGGSTYYADSVKGRFTISRDNAKNTVYLQMNSLKPEDTAVYYCGKDGGWSRLHYNYWGQGTQVTVSS,high polyreactivity
21,QDQLVESVGGLVQAGGSLRLSCAASGSIFDQNAMGCSRHAPGKESELVAAITRGGSTKYADSVKGRFTISRDNAKNTVYLQMNSLKPEDTAVYYCARTDRRRYQPYEYWGPGTQVTVSS,low polyreactivity
22,QVQIVESGGGLVQAGGSLRLSCPASGSTFTRYPMGWYSQAPGKERELVAAISYSGSSTYYADSVKGRFTISRDNAKNTVYLEMICLIPEDTAVYYCAAGKQAPAVNYGYYYWGQCTQVTVSS,low polyreactivity

row,Sequence,polyreactivity (PSR sort gate)
1,QVQLVESGGGLVHAGGSLRLSCAASGSTFGANAMGWYRQAPGKEREFVAAISGSGTTTYYADSVKGRFTISRDNAKNSVYLQMNSLKPEDTAVYYCAKTRKGHWLEYWGQGTQVTVSS,low polyreactivity
2,QVQLVESGGGLVQAGGSLRLSCAACGSTFYVNTMGWYRQAPGKERELVAAITDSGVGTYADSVKGRFTISRDNAKNTVYLQMNSLKPEDTAVYYCNADGRYYDDETYDYWGQGTQVTVSS,low polyreactivity
3,QVQLVESGGGLVQAGGSLRLSCAASGSTFYIYAMGWYRQAPGKERELVARISGSGGSTYYADSVKGRFTISRDNAKNTVELQMNSLKPEDTAVYYCAADDIYKYYQYYAFPYYRYDYWGQGTQVTVSS,low polyreactivity
4,QVQIVESGGGLVQAGVSLRLSCAASGSTFETNTMGWYRKAPGKERELVAAITTGGRTYYADSLKGRFSISRDNAKNNVYLQMNSLKPEDTAVYYCAVAYWNRQSLFRMYYWGQGTQVTVSS,high polyreactivity
5,QVQLVESGGGLVQAGGSLRLSCAASGYTFDAYSMGWYRQAPGKERELVAAITTNGGSTYYADSVKGRFTISRDNAKNTVYLQMNSLKPEDTAVYYCNAEYSYEGRYPYDYWGQGTQVTVSS,low polyreactivity
6,QVQLVESGGGLVQAGGSLRLSCADSGLTFEGYAMGWNRQAPGKERELVAAITWSGGNTYYADSVKGRFTSSRDNAKKTVYLQMNSLKPEDTAVYYCAAQRPSRDSRPFEYWGQGTQVTVSS,low polyreactivity
7,QVQLVESGGGLVQAGGSLRLSCAASGRILYYYAMGWYRQAPGKERELVAAISGSAGTTYYADSVKGRFTISRDNAKNPVYLQMNSLKPEDTAVYYCSKYYPYIQADYGYDYWGQGTQVSVSS,low polyreactivity
8,QVQLVESGGGLVQAGGSLRLSCAASGFTFPVYAMGWYRQAPGKERELVAAISSGGRTDYADSVKGRFTISRDNAKNTVYLQMNSLKPEDTAVYYCNKARSDHDGRNDSWGQGTQVTVSS,high polyreactivity
9,QVKLVESGGGLVQAGGSLRLSFAAYGSIFAWYGMGWYRQAPGKERELVAAISTAGSTNYADSVKGRFTISRDNAKNTVYLQMNSLKPEDTAVYYCAKKSSWYYQERFDYWGQGTQVTASS,low polyreactivity
10,QVQLVESGGGLVQAGGSLRLSCAASGFIFSPYAMGWYRQAPGKERELVAAISSGVGTRTYYADSVKGRFTISRDNAKNNVYLQINSLKPEDTAVYYCAARIPAWRAAERGGYWGQGTQVTVSS,high polyreactivity
11,QVQLVESGGGLVQAGGSLRLSCAASGLIFYYYAMGWYRQAPGKEREFVAAINSSGDSTYYADSVKGRFTISRDNAKNTVYLQMNSLKPEDTAVYYCNVDWYLHEYDYWGQGTQVTVSS,low polyreactivity
12,QVQLVESGGGLVQAGGSLRLSCAASGSTFYPYAMGWYRQAPGKERELVAAIDRGGSTSYADSVKGRFTISRDNAKNTVYLQMNSLKPEDTAVYYCAVARGGRRKYEYWGQGTQVTVSS,low polyreactivity
13,QVQLVESGGGLVQAAGSLRLSCAASGLTFGGYPMGWYRQAPGKERELVAAISRSCGSTYYADSVKGRFTISRDNAKNTVYLQMNSLKPEDTAVSYCNAGRDTKYDYWGQGTQVTVSS,low polyreactivity
14,QVQLVESGGGLVQAGGSLRLSCAASGFTFYRYDMGWYRQAPGQERELVAAITNNGGNTYYADSVKGRFTISRDNAKNTVYLQMNSLKPEDTAVYYCAARTWGRYDYWGQGTQVTVSS,high polyreactivity
15,QVQLVESGGGLVQAGGSLRLSCAASGFTFYWYAMGWYRQAPGKEREFVAAIDQSGGSTYYADSVKGRFTISRDNAKNTVYLQMNSLKPEDTAVYYCAKLYTIGYDYWGQGTQVTVSS,low polyreactivity
16,QVQLVDSGGGLLQAGGSLRLSFAASGRTLNHYVMGWYRQAPGKERELVAAISSGGSTYYADSVKGRFTISRDNAKNTVYLQMNSLKPEDTAVYYCNAGVVGDYPYWGLMDYWGQGTKVTVSS,high polyreactivity
17,QLQLVESGGGLVQAGGSIRLSCAASGSIFDWYAMGWYRQEPGKERELVARITSGGRTNYADSVKGRFTISRDNAKNTVYLQMNSLKPEDTAVYYCAAGRVSWSPYYYWGQGTQVTVSS,high polyreactivity
18,QVQLVESGGGLVQAGGSLRLSCAASGSTYWINAMGWYRQAPGKEREFVAAIRWNGGSTNYADSVKGRFTISRDNAKNTVYLQMNSLKPEDTAVYYCAADGYIGWRHIYEYWGQGTQVTVSS,low polyreactivity
19,QVQLVESGGVLVQAGGSLRLSCAASGSTFWLYAMGWNRQAPRKERELVAAITRSGGRTNYADSVKGRFTISRDNAKNTVYLQMNSLKPEDTAVYYCAAEYLGVSYNNWAYDFWGQGTQVTVSS,low polyreactivity
20,QVQLVESGGGLVQAGGSLRISCAASGFIFGPNAMGWYRQAPGKERELVAAISYSGGRTYYADSVKGRFTISRDNAKNTVYLQMNILKPEDTAVYYCAQPGRYWGQGTQVTVSS,high polyreactivity
21,RVQLVESGGGLVQAGGSLRLSCAASGRIFDNYVMGCYRQAPGKDRELLAAISSGGGTYYADSVKGRFTISRDNAMNTVYLQMNSLKPEDTAVYFCAKRRVYDRSFGRYDYWGQGTQVTGSS,low polyreactivity
